± gives the uncertainty stated by the source.
experiment: protein stability index of a GFP-peptide fusion (yeast GPS) (PSI 1-4); higher = more stable; sorted into four equal gates, so the index is relative within each strain; settings: ubr1∆
In short: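 Tiled yeast protein peptides of 17 residues were each joined downstream of GFP, on plasmids that also express Cherry. The pooled library was maintained in yeast, and mid-log cultures in leucine-free medium were sorted into four equal gates on the GFP/Cherry ratio. Plasmids from every gate were amplified by PCR and sequenced on Illumina, with barcodes linking reads to strains. The protein stability index of a peptide is its gate-number-weighted read frequency summed over the gates.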

Sequence | protein stability index
WDLLPEPIRFLPNQFPL [SWI1] | 2.31 ± 0.069
WDLSVEDALYLGKRSIL [PRE2] | 3.39 ± 0.048
WGHPTRMLLNLCKSATT [BRR2] | 1.35 ± 0.046
WIVVLPWFWLLPLWHLL [POP1] | 1.07 ± 0.046
WKRQISYFLKLLGNCYS [SRB8] | 1.37 ± 0.037
WNKRDFMAFINACAKYG [ISW2] | 1.15 ± 0.063
WQYIVIDEAHRIKNEQS [ISW2] | 2.24 ± 0.071
WREQLRNRDIALFQPPN [ROX3] | 1.96 ± 0.047
WRKDAQGNYPTTSYIKE [DPB4] | 2.56 ± 0.064
WSFDLPEMSNLYRLSTP [PRP8] | 2.67 ± 0.043
WTSTQRHHWQYTKASLA [SSN8] | 1.46 ± 0.073
WVQLVQIIVTDGKLEPS [YJL039C/NUP192] | 1.27 ± 0.07
WVYKTKGDGMTSAVASI [RPN1] | 2.97 ± 0.14
WYIEKVIRIPMQENDKI [CSI1] | 3.02 ± 0.14
WYKVAKNVGNKSPEQCI [SWI3] | 3.08 ± 0.05
YAKDILQKEFLPHITQL [RPB2] | 1.38 ± 0.031
YALFLKALRRKIYINLA [SSN2] | 1.47 ± 0.085
YATKLSKFTKIPPTFDK [MED4] | 2.87 ± 0.14
YCDSMGRPQRKMMSFQA [RPB5] | 3.3 ± 0.09
YCHEKELTIIKNPRVTK [CSN9] | 2.13 ± 0.13
YCKGKTCRKHTQHKVTQ [RPL42A] | 2.91 ± 0.14
YCSGNIYDFHKMENLMR [YJL039C/NUP192] | 2.73 ± 0.052
YDGVERVSLQDIKDFAD [QCR2] | 2.41 ± 0.089
YDLMAPNGHISTKKIQV [YMR129W/POM152] | 1.94 ± 0.05
YDLNFKLRETLVKIDDL [SMC1] | 2.68 ± 0.14
YDTTPLLDTNSLEENAM [SKI6] | 2.88 ± 0.078
YENKQLYFPDDYPFTQL [POP1] | 3.01 ± 0.036

Sequence | protein stability index
YESRNVAKRRFEYSKYR [RRP6] | 3.3 ± 0.079
YFFYASRPEYSCTFWSD [YJL039C/NUP192] | 1.62 ± 0.054
YGFSNKEYISRLWHTLK [SNF5] | 1.19 ± 0.13
YGNPTSKESWRYDWYQP [RTT102] | 2.03 ± 0.035
YGTRPLVLPPVVTSSVA [SNF2] | 1.94 ± 0.051
YGYFSVGKRVPIVEDRR [SIR4] | 2.75 ± 0.26
YHLLNYDPIKRIDAFNA [SSN3] | 1.73 ± 0.031
YHNKHMMCDFGTGNNNK [DIB1] | 2.98 ± 0.041
YHSGRLLIQGPKASSAK [ITC1] | 3.17 ± 0.073
YILANHYLSRVLSDQVG [YJL039C/NUP192] | 2.54 ± 0.049
YILRYLHANGASFFFMV [COB] | 1.36 ± 0.038
YITARIMAKRPFDKKSN [FAS1] | 2.86 ± 0.081
YKEQIIQGFYWAVKEGP [SNU114] | 2.38 ± 0.08
YKMVQEQLSKQRDLYKR [SMC2] | 3.09 ± 0.063
YKNLDRGFSKDLKSKAD [RRP6] | 3.53 ± 0.099
YKPLIEERMGQIENLNE [SMC4] | 3.28 ± 0.068
YKQAMNETSEQLVPIRL [SNF5] | 3.43 ± 0.12
YKVDNMTRILPQQSRYI [RPN2] | 2.56 ± 0.099
YKVMHQIRACKDLKHII [PRP8] | 2.19 ± 0.05
YLAENPDPNFENSIGYN [PRP8] | 3.19 ± 0.054
YLERIELSFYILYSFKL [YML103C/NUP188] | 1.59 ± 0.037
YLIVAGVDPTGSHLFSI [PUP1] | 2.09 ± 0.068
YLKGATGHSQGLVTAVA [FAS1] | 3.86 ± 0.23
YLLASLKDSKDFDESLK [RPN9] | 2.52 ± 0.084
YLLENNQVGTDELILPL [YDL116W/NUP84] | 2.89 ± 0.057
YLMDSKNVRTRIKLATT [RRI1] | 1.99 ± 0.061
YMDSMNEKVAVMRNTYN [GAL11] | 2.34 ± 0.098

Sequence | protein stability index
YNGRGARERKTATYNDN [SNF2] | 2.69 ± 0.071
YNVCDTSKSLVKRYRLA [SIN4] | 3.16 ± 0.042
YPFDKLESWWLVLGEVS [BRR2] | 3.41 ± 0.24
YPFLLSFLGEAKSMAFL [YML103C/NUP188] | 2.38 ± 0.048
YPFVTNDDIEWMLSICV [YJR042W/NUP85] | 2.68 ± 0.058
YQKNKPYPKSRYNRAVP [RPL10] | 2.85 ± 0.038
YRLMIKRLNFSFVGDYM [GRR1] | 1.51 ± 0.054
YSAAKKIPDTYTANTSA [YAR002W/NUP60] | 2.55 ± 0.038
YSDIGGLESQIQEIKES [RPT2] | 2.52 ± 0.091
YSLHQIRKDPNNLSNQL [CSE2] | 2.77 ± 0.04
YSRILKSMGRKCFDDIE [YCG1] | 2.16 ± 0.13
YSSKPYKVDNMTRILPQ [RPN2] | 2.31 ± 0.067
YTNSVELRSLSKKDFKI [YMR129W/POM152] | 2.92 ± 0.069
YTRYLDRIYMLFHFEED [PRP8] | 1.61 ± 0.043
YVIKALQSLTSKGYVKT [RPS10A] | 2.6 ± 0.089
YVKAVSDKAQLNVVMKN [SMC4] | 2.19 ± 0.053
YVLYAKIVVLSRTGPVF [RRP43] | 1.19 ± 0.06
YVSALKRINKFLDSVHK [POP7] | 1.8 ± 0.034
YVSQIRKHKRVSPNAAP [YAR002W/NUP60] | 2.29 ± 0.081
YVTKPMVNESDGVTHAL [RPB2] | 3.36 ± 0.082
YWTQYLGLFIHKISFSG [YJL039C/NUP192] | 1.89 ± 0.05
YYGCLENDHERGFFHLN [CSN12] | 3.26 ± 0.044
YYKNFHNSVKRYQIMLP [SNM1] | 1.47 ± 0.05
YYQRLRHMVDDKIHARA [RPB2] | 2.77 ± 0.15
YYVPYSKLMPVLKSSVY [RPC82] | 1.74 ± 0.079
